Measured values from patent US20180362926.

Tests used:
Test in all cases: cell_activity
[1] = system: SBS68815 ZFN Qm5 in F1,F3,F5; FokI R416E; conditions: 55266-2A-68815, T cells, 12 ug mRNA
[2] = system: SBS68879 ZFN Qm5 in F1,F3,F5; FokI K525S; conditions: 55266-2A-68879, T cells, 12 ug mRNA
[3] = system: SBS53810 ZFN; conditions: pair 53810:55255, K562, 500 ng/ZFN
[4] = system: SBS55254 ZFN; conditions: pair 55248:55254, K562, 500 ng/ZFN
[5] = system: SBS55255 ZFN; conditions: pair 53810:55255, K562, 500 ng/ZFN
[6] = system: SBS55260 ZFN; conditions: pair 55248:55260, K562, 500 ng/ZFN
[7] = system: SBS68796 ZFN Qm5 in F1,F3 (nQm5s [sic]),F4; conditions: 68796-2A-68813, T cells, 12 ug mRNA; off-target at background
[8] = system: SBS68812 ZFN Qm5 in F1,F3 (nQm5s [sic]),F4; FokI R416E; conditions: 68812-2A-68813, T cells, 12 ug mRNA
[9] = system: SBS68876 ZFN Qm5 in F1,F3 (nQm5s [sic]),F4; FokI K525S; conditions: 68876-2A-68877, T cells, 12 ug mRNA
[10] = system: SBS53785 ZFN; conditions: pair 55229:53785, K562, 500 ng/ZFN
[11] = system: SBS55229 ZFN; conditions: pair 55229:53785, K562, 500 ng/ZFN
[12] = system: SBS57531 ZFN; conditions: pair 72732/57531, background corrected
[13] = system: SBS68957 ZFN FokI K525S; conditions: pair 57071/68957, background corrected
[14] = system: SBS57071 ZFN; conditions: pair 57071/68957, background corrected
[15] = system: SBS72748 ZFN FokI Q481D; conditions: pair 72748/68957, background corrected
[16] = system: SBS53759 ZFN; conditions: pair 55204:53759, K562, 500 ng/ZFN
[17] = system: SBS52742 ZFN; conditions: pair 52774:52742, K562, 500 ng/ZFN
[18] = system: SBS53909 ZFN; conditions: pair 53885:53909, K562, 500 ng/ZFN
[19] = system: SBS53863 ZFN; conditions: pair 53860:53863, K562, 500 ng/ZFN
[20] = system: SBS55287 ZFN; conditions: pair 53856:55287, K562, 500 ng/ZFN
[21] = system: SBS55204 ZFN; conditions: pair 55204:53759, K562, 500 ng/ZFN

AACAGGTAAGACAGGGGTCTAGCCTGGG (double strand) [TCRA site E right]
activity [1]: 97.6 % indels
activity [2]: 96.3 % indels

AGGATTCGGAACCCAATCACTG (double strand) [TCRA site of 53810]
activity [3]: 91.5 % NHEJ

CTCCTGAAAGTGGCCGGGTTTAATCTGC (double strand) [TCRA site D left]
activity [4]: 96.2 % NHEJ
activity [5]: 91.5 % NHEJ
activity [6]: 93 % NHEJ
activity [7]: 99.3 % indels
activity [8]: 99.9 % indels
activity [9]: 99.2 % indels

CTGTGGCCTGGAGCAACAAATCTGACTT (double strand) [TCRA site of 53785]
activity [10]: 93.6 % NHEJ

CTGTTGCTCTTGAAGTCCATAGACCTCA (double strand) [TCRA site of 55229]
activity [11]: 93.6 % NHEJ

GAGTAGCGCGAGCACAGCTAAGGCCACG (double strand) [B2M site of 57531]
activity [12]: 95.8 % indels
activity [13]: 91.6 % indels

GCCACGGAGCGAGACATCTCGGCCCGAA (double strand) [B2M site of 57071]
activity [14]: 91.6 % indels
activity [15]: 93.4 % indels

GTGCTGTGGCCTGGAGCAACAAATCTGA (double strand) [TCRA site of 53759]
activity [16]: 87.7 % NHEJ

TCCTCCTGAAAGTGGCCGGGTTTAATCT (double strand) [TCRA site G right]
activity [17]: 84.4 % NHEJ
activity [18]: 90.2 % NHEJ

TTCAAGAGCAACAGTGCTGTGGCCTGGA (double strand) [TCRA site F right]
activity [19]: 87.3 % NHEJ
activity [20]: 74.8 % NHEJ

TTGCTCTTGAAGTCCATAGACCTCATGT (double strand) [TCRA site of 55204]
activity [21]: 87.7 % NHEJ
